Reference: patent US11466286B2, “Methods and compositions for conferring and/or enhancing herbicide tolerance using protoporphyrinogen oxidase or variant thereof” (FarmHannong Co., Ltd., priority 2016, dated 2022)

Tested on: CyPPO10
Assay: PPO enzyme activity and IC50 by herbicides, CyPPO10 wild type and variants (MBP-PPO fusion)
Format: biochemical, Thermosynechococcus elongatus BP-1
Conditions: PPO enzyme activity of CyPPO10 protein, wild type = 100
Protocol: The enzyme activities of PPO protein and PPO protein variants were examined, and inhibition assay by PPO-inhibiting herbicides was conducted. It was confirmed that the PPO protein has low water-solubility, but in case of being expressed as a fusion protein with MBP (maltose binding protein) (MBP-PPO), the PPO protein is able to be stably expressed as water-soluble form. Therefore, the wild type and variant proteins which were expressed in the form of fusion protein with MBP were used in the present test (refer to FIG. 4).
In order to express wild type genes and mutant genes of CyPPO10 and CyPPO13 (refer to Example 1 and Example 4), those genes were introduced to pMAL-c2X vector (refer to FIG. 5) respectively, and then cloned to BL21 (DE3) E. coli (CodonPlus).
The enzyme activity of the purified wild type protein and variant proteins of CyPPO10 and CyPPO13 was measured by the following process.
At first, a substrate of PPO protein, Protoporphyrinogen IX was synthesized. This process was performed in the space where nitrogen gas is streamed. 6 mg of protoporphyrin IX was dissolved in 20% (v/v) EtOH 20 ml, and stirred under dark condition for 30 minutes. The obtained protoporphyrinogen IX solution was put into a 15 ml screw tube in an amount of 800 and flushed with nitrogen gas for 5 minutes. To this, 1 g of sodium amalgam was added and vigorous shaking was performed for 2 minutes. The lid was open to exhaust hydrogen gas in the tube. Thereafter, the lid was closed and incubated for 3 minutes. The […] was filtered using syringe and cellulose membrane filter. To 600 μl of the obtained […], 2M MOPS [3-(N-morpholino)propanesulfonic acid] was added in an amount of approximately 300 thereby adjusting pH to 8.0. To determine the enzyme activity of PPO protein, a reaction mixture was prepared with the following composition (based on 10 ml): 50 mM Tris-Cl (pH 8.0); 50 mM NaCl; 0.04% (v/v) Tween 20; 40 mM glucose (0.072 g); 5 units glucose oxidase (16.6 mg); and 10 units catalase (1 μl).
Two hundred microliters (200 μl) of reaction mixture containing a purified PPO protein were placed in 96 well plates, and preincubated for 30 min at room temperature to reduce the oxygen concentration by the reaction of glucose oxidase-catalase. The mineral oil was layered and then the reaction was initiated by adding the substrate, […], to a final concentration of 50 μM. The reaction proceeded at room temperature for 30 min and the fluorescence of protoporphyrin IX was measured using Microplate reader (Sense, Hidex) (excitation: 405 nm; emission: 633 nm). To calculate the PPO enzyme activity, protoporphyrinogen IX solution was kept open in the air to oxidize the solution (overnight). To this, 2.7N HCl was added, and the absorbance at 408 nm was measured. A standard curve was generated using standard protoporphyrin IX, and the PPO activity was measured by calibration of protoporphyrin IX using the standard curve of protoporphyrin IX.
The final concentration of each herbicide was as follows: […]

| Molecule | Activity (%) |
| --- | --- |
| CyPPO10 V165S + F360L: CyPPO10 (SEQ ID NO: 2) PPO variant (protein, Synthetic CyPPO10) MIEVDVAIVGGGLSGLSVAWRLQRSAPHYSGVLLEASDRLGGNITTQAAEGFVWELGPNSFAPTPALLQLIAEVGLHSELIRGDRHLPRYIYWRGELYPLEPTRPLALATSNLLSPWGKVRAALGALGFVPPYLGSGDESVDSFFRRHLGQEVAERLVAPFVSGSYAGDPQQLSAAAAFRRIAQLEKLGGSLIAGALRLRRQQPPQPKPPAQVQMRPGELGSFREGLAALPRAIAQQLKAPLHLQTPVEAITPEPKGGYLLRSGEQTWHARSVVLATPAYQTAELVAPFQPAIARALATIPYPTVACVVLAYPAGLGRSVRPGFGVLVPRGQGIRTLGTIWSSCLFPQRTPAGWQVFTSLIGGATDPDLASLREEAIVEQVQQDLTRLLDLPAAKARLLGMKVWRRAIPQYIVGYPQQWQQVTHALTQTPGLFLCSNYAEGVALGDRVEHGNRTAAAVAAYLAGGQS | 59% |
| CyPPO10 V165S + F360V: CyPPO10 (SEQ ID NO: 2) PPO variant (protein, Synthetic CyPPO10) MIEVDVAIVGGGLSGLSVAWRLQRSAPHYSGVLLEASDRLGGNITTQAAEGFVWELGPNSFAPTPALLQLIAEVGLHSELIRGDRHLPRYIYWRGELYPLEPTRPLALATSNLLSPWGKVRAALGALGFVPPYLGSGDESVDSFFRRHLGQEVAERLVAPFVSGSYAGDPQQLSAAAAFRRIAQLEKLGGSLIAGALRLRRQQPPQPKPPAQVQMRPGELGSFREGLAALPRAIAQQLKAPLHLQTPVEAITPEPKGGYLLRSGEQTWHARSVVLATPAYQTAELVAPFQPAIARALATIPYPTVACVVLAYPAGLGRSVRPGFGVLVPRGQGIRTLGTIWSSCLFPQRTPAGWQVFTSVIGGATDPDLASLREEAIVEQVQQDLTRLLDLPAAKARLLGMKVWRRAIPQYIVGYPQQWQQVTHALTQTPGLFLCSNYAEGVALGDRVEHGNRTAAAVAAYLAGGQS | 52% |
| CyPPO10 A167L + F360I: CyPPO10 (SEQ ID NO: 2) PPO variant (protein, Synthetic CyPPO10) MIEVDVAIVGGGLSGLSVAWRLQRSAPHYSGVLLEASDRLGGNITTQAAEGFVWELGPNSFAPTPALLQLIAEVGLHSELIRGDRHLPRYIYWRGELYPLEPTRPLALATSNLLSPWGKVRAALGALGFVPPYLGSGDESVDSFFRRHLGQEVAERLVAPFVSGVYLGDPQQLSAAAAFRRIAQLEKLGGSLIAGALRLRRQQPPQPKPPAQVQMRPGELGSFREGLAALPRAIAQQLKAPLHLQTPVEAITPEPKGGYLLRSGEQTWHARSVVLATPAYQTAELVAPFQPAIARALATIPYPTVACVVLAYPAGLGRSVRPGFGVLVPRGQGIRTLGTIWSSCLFPQRTPAGWQVFTSIIGGATDPDLASLREEAIVEQVQQDLTRLLDLPAAKARLLGMKVWRRAIPQYIVGYPQQWQQVTHALTQTPGLFLCSNYAEGVALGDRVEHGNRTAAAVAAYLAGGQS | 32% |
| CyPPO10 A167C + F360M: CyPPO10 (SEQ ID NO: 2) PPO variant (protein, Synthetic CyPPO10) MIEVDVAIVGGGLSGLSVAWRLQRSAPHYSGVLLEASDRLGGNITTQAAEGFVWELGPNSFAPTPALLQLIAEVGLHSELIRGDRHLPRYIYWRGELYPLEPTRPLALATSNLLSPWGKVRAALGALGFVPPYLGSGDESVDSFFRRHLGQEVAERLVAPFVSGVYCGDPQQLSAAAAFRRIAQLEKLGGSLIAGALRLRRQQPPQPKPPAQVQMRPGELGSFREGLAALPRAIAQQLKAPLHLQTPVEAITPEPKGGYLLRSGEQTWHARSVVLATPAYQTAELVAPFQPAIARALATIPYPTVACVVLAYPAGLGRSVRPGFGVLVPRGQGIRTLGTIWSSCLFPQRTPAGWQVFTSMIGGATDPDLASLREEAIVEQVQQDLTRLLDLPAAKARLLGMKVWRRAIPQYIVGYPQQWQQVTHALTQTPGLFLCSNYAEGVALGDRVEHGNRTAAAVAAYLAGGQS | 90% |
| CyPPO10 V305M + F360M: CyPPO10 (SEQ ID NO: 2) PPO variant (protein, Synthetic CyPPO10) MIEVDVAIVGGGLSGLSVAWRLQRSAPHYSGVLLEASDRLGGNITTQAAEGFVWELGPNSFAPTPALLQLIAEVGLHSELIRGDRHLPRYIYWRGELYPLEPTRPLALATSNLLSPWGKVRAALGALGFVPPYLGSGDESVDSFFRRHLGQEVAERLVAPFVSGVYAGDPQQLSAAAAFRRIAQLEKLGGSLIAGALRLRRQQPPQPKPPAQVQMRPGELGSFREGLAALPRAIAQQLKAPLHLQTPVEAITPEPKGGYLLRSGEQTWHARSVVLATPAYQTAELVAPFQPAIARALATIPYPTMACVVLAYPAGLGRSVRPGFGVLVPRGQGIRTLGTIWSSCLFPQRTPAGWQVFTSMIGGATDPDLASLREEAIVEQVQQDLTRLLDLPAAKARLLGMKVWRRAIPQYIVGYPQQWQQVTHALTQTPGLFLCSNYAEGVALGDRVEHGNRTAAAVAAYLAGGQS | 87% |
| CyPPO10 V305T + F360I: CyPPO10 (SEQ ID NO: 2) PPO variant (protein, Synthetic CyPPO10) MIEVDVAIVGGGLSGLSVAWRLQRSAPHYSGVLLEASDRLGGNITTQAAEGFVWELGPNSFAPTPALLQLIAEVGLHSELIRGDRHLPRYIYWRGELYPLEPTRPLALATSNLLSPWGKVRAALGALGFVPPYLGSGDESVDSFFRRHLGQEVAERLVAPFVSGVYAGDPQQLSAAAAFRRIAQLEKLGGSLIAGALRLRRQQPPQPKPPAQVQMRPGELGSFREGLAALPRAIAQQLKAPLHLQTPVEAITPEPKGGYLLRSGEQTWHARSVVLATPAYQTAELVAPFQPAIARALATIPYPTTACVVLAYPAGLGRSVRPGFGVLVPRGQGIRTLGTIWSSCLFPQRTPAGWQVFTSIIGGATDPDLASLREEAIVEQVQQDLTRLLDLPAAKARLLGMKVWRRAIPQYIVGYPQQWQQVTHALTQTPGLFLCSNYAEGVALGDRVEHGNRTAAAVAAYLAGGQS | 10% |
| CyPPO10 R89A + V305T + F360M: CyPPO10 (SEQ ID NO: 2) PPO variant (protein, Synthetic CyPPO10) MIEVDVAIVGGGLSGLSVAWRLQRSAPHYSGVLLEASDRLGGNITTQAAEGFVWELGPNSFAPTPALLQLIAEVGLHSELIRGDRHLPAYIYWRGELYPLEPTRPLALATSNLLSPWGKVRAALGALGFVPPYLGSGDESVDSFFRRHLGQEVAERLVAPFVSGVYAGDPQQLSAAAAFRRIAQLEKLGGSLIAGALRLRRQQPPQPKPPAQVQMRPGELGSFREGLAALPRAIAQQLKAPLHLQTPVEAITPEPKGGYLLRSGEQTWHARSVVLATPAYQTAELVAPFQPAIARALATIPYPTTACVVLAYPAGLGRSVRPGFGVLVPRGQGIRTLGTIWSSCLFPQRTPAGWQVFTSMIGGATDPDLASLREEAIVEQVQQDLTRLLDLPAAKARLLGMKVWRRAIPQYIVGYPQQWQQVTHALTQTPGLFLCSNYAEGVALGDRVEHGNRTAAAVAAYLAGGQS | 5% |
| CyPPO10 S60T + V165S + F360M: CyPPO10 (SEQ ID NO: 2) PPO variant (protein, Synthetic CyPPO10) MIEVDVAIVGGGLSGLSVAWRLQRSAPHYSGVLLEASDRLGGNITTQAAEGFVWELGPNTFAPTPALLQLIAEVGLHSELIRGDRHLPRYIYWRGELYPLEPTRPLALATSNLLSPWGKVRAALGALGFVPPYLGSGDESVDSFFRRHLGQEVAERLVAPFVSGSYAGDPQQLSAAAAFRRIAQLEKLGGSLIAGALRLRRQQPPQPKPPAQVQMRPGELGSFREGLAALPRAIAQQLKAPLHLQTPVEAITPEPKGGYLLRSGEQTWHARSVVLATPAYQTAELVAPFQPAIARALATIPYPTVACVVLAYPAGLGRSVRPGFGVLVPRGQGIRTLGTIWSSCLFPQRTPAGWQVFTSMIGGATDPDLASLREEAIVEQVQQDLTRLLDLPAAKARLLGMKVWRRAIPQYIVGYPQQWQQVTHALTQTPGLFLCSNYAEGVALGDRVEHGNRTAAAVAAYLAGGQS | 17% |
